Measurements from paper PMC6727212 (ACS Chemical Neuroscience, 2019).
Several values for one entry are separate records, joined by “and”; a condition that tells them apart may be missing. Equal values may be shown once. Read-outs that look alike come from different tables or passages of the source.

Experiments:
[1] = molecular target: the molecule itself; assay: SEC; Superdex 75 (10 x 300 mm) on FPLC, room temperature, 0.5 mL/min, 500 uL of about 1 mg/mL protein; 10 mM phosphate, 0.15 M NaCl, pH 7.5 (legend and results; the methods say pH 7.0); equilibrium oligomeric state, stB wt as standard
[2] = molecular target: the molecule itself; assay: as above; remark: listed apart in the source

Protein | stoichiometry N [1] | binding result [1] | further results
recombinant human stefin B wild-type (C3S) (natural protein, UniProt P04080 1-98, looked up) MMSGAPSATQPATAETQHIADQVRSQLEEKENKKFPVFKAVSFKSQVVAGTNYFIKVHVGDEDFVHLRVFQSLPHENKPLTLSNYQTNKAKHDELTYF | 2 |  | 
human stefin B P74S P79S (natural protein, UniProt P04080 1-98, looked up) MMSGAPSATQPATAETQHIADQVRSQLEEKENKKFPVFKAVSFKSQVVAGTNYFIKVHVGDEDFVHLRVFQSLSHENKSLTLSNYQTNKAKHDELTYF | 2 |  | 
human stefin B P6L P74S (natural protein, UniProt P04080 1-98, looked up) MMSGALSATQPATAETQHIADQVRSQLEEKENKKFPVFKAVSFKSQVVAGTNYFIKVHVGDEDFVHLRVFQSLSHENKPLTLSNYQTNKAKHDELTYF | 2 |  | 
human stefin B P79S (natural protein, UniProt P04080 1-98, looked up) MMSGAPSATQPATAETQHIADQVRSQLEEKENKKFPVFKAVSFKSQVVAGTNYFIKVHVGDEDFVHLRVFQSLPHENKSLTLSNYQTNKAKHDELTYF | 2 and 4 |  | 
human stefin B P74S (natural protein, UniProt P04080 1-98, looked up) MMSGAPSATQPATAETQHIADQVRSQLEEKENKKFPVFKAVSFKSQVVAGTNYFIKVHVGDEDFVHLRVFQSLSHENKPLTLSNYQTNKAKHDELTYF |  |  | binding result [2]: binds
human stefin B P11S P74S (natural protein, UniProt P04080 1-98, looked up) MMSGAPSATQSATAETQHIADQVRSQLEEKENKKFPVFKAVSFKSQVVAGTNYFIKVHVGDEDFVHLRVFQSLSHENKPLTLSNYQTNKAKHDELTYF | 2 |  | 
human stefin B P6L (natural protein, UniProt P04080 1-98, looked up) MMSGALSATQPATAETQHIADQVRSQLEEKENKKFPVFKAVSFKSQVVAGTNYFIKVHVGDEDFVHLRVFQSLPHENKPLTLSNYQTNKAKHDELTYF |  | binds | 
human stefin B P36D (natural protein, UniProt P04080 1-98, looked up) MMSGAPSATQPATAETQHIADQVRSQLEEKENKKFDVFKAVSFKSQVVAGTNYFIKVHVGDEDFVHLRVFQSLPHENKPLTLSNYQTNKAKHDELTYF |  | binds | 
human stefin B P11S (natural protein, UniProt P04080 1-98, looked up) MMSGAPSATQSATAETQHIADQVRSQLEEKENKKFPVFKAVSFKSQVVAGTNYFIKVHVGDEDFVHLRVFQSLPHENKPLTLSNYQTNKAKHDELTYF |  | binds | 
